From patent publication US20030170203A1 (Human Genome Sciences, published 2003)

Experiments:
Assay in all cases: flow cytometry on transiently transfected cells
[1] = target: T1, HveA on transiently transfected cells (UniProt Q92956 39-283, limits assumed)
T1 construct: whole, on cells
T1 sequence (looked up): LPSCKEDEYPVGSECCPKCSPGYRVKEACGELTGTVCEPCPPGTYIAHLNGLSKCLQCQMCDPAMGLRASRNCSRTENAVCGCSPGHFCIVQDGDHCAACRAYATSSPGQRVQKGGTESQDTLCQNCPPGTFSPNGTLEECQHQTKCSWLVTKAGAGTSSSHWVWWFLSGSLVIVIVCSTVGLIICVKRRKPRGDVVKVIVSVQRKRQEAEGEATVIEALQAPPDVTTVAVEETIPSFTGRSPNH
Procedure: (§1) One million cells, in 0.1 ml of FACS buffer (PBS, 0.1% BSA, 0.1% NaN₃), were incubated with 0.1-1 microgram of protein or antibody at RT for 15 min. The cells were washed with 3 ml of FACS buffer, reacted with biotinylated primary antibody, and stained with PE-conjugated secondary antibody at RT for 15 min. Cells were then washed again, resuspended in 0.5 microgram/ml of propidium iodide, and live cells were gated and analyzed on a FACScan using the CellQuest software (BD Biosciences).

[2] = target: T2, DcR2 on transiently transfected cells (UniProt Q9UBN6 56-386, limits assumed)
T2 construct: whole, on cells
T2 sequence (looked up): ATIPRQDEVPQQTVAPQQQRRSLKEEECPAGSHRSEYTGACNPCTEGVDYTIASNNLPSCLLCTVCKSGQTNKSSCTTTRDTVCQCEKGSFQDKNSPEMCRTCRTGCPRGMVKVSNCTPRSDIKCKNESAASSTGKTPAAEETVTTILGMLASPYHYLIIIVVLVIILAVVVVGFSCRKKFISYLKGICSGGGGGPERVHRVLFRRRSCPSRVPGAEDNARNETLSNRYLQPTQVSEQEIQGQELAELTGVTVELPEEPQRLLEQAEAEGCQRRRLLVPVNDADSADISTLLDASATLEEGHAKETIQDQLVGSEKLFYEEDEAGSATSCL
Procedure: as §1

[3] = target: T3, CD30 on transiently transfected cells (UniProt P28908 19-595, limits assumed)
T3 construct: whole, on cells
T3 sequence (looked up): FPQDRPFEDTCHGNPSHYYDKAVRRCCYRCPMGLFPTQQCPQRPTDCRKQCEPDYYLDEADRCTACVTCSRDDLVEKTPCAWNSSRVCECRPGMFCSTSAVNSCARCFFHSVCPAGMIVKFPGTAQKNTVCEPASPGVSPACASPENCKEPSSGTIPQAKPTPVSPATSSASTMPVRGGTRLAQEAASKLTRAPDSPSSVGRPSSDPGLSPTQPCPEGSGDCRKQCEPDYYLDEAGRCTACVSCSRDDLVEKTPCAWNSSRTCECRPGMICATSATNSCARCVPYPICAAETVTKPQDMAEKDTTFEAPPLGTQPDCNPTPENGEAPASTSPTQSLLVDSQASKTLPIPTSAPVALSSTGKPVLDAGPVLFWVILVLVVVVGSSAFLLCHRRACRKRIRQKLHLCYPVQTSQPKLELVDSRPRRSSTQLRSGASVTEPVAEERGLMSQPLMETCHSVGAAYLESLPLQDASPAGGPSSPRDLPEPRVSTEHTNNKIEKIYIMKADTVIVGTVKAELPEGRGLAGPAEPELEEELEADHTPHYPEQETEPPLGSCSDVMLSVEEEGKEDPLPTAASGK
Procedure: as §1

[4] = target: T4, RANK on transiently transfected cells (UniProt Q9Y6Q6 30-616, limits assumed)
T4 construct: whole, on cells
T4 sequence (looked up): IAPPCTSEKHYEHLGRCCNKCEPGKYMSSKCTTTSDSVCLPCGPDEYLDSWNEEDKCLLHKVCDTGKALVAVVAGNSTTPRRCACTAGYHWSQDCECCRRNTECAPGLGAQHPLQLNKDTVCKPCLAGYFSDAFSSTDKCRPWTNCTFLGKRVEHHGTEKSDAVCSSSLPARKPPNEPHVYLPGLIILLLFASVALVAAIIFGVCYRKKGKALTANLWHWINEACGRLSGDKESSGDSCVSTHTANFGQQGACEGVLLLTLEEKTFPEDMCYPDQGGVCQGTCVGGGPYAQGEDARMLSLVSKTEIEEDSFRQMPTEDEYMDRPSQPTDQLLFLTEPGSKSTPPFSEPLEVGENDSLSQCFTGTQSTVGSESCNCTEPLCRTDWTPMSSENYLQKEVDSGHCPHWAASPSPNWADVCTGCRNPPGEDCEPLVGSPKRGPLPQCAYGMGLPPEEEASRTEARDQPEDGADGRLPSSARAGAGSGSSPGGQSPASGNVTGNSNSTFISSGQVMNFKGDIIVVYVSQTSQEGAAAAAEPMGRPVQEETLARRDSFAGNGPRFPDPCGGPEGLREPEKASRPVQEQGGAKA
Procedure: as §1

[5] = target: T5, CD27 on transiently transfected cells (UniProt P26842 20-260, limits assumed)
T5 construct: whole, on cells
T5 sequence (looked up): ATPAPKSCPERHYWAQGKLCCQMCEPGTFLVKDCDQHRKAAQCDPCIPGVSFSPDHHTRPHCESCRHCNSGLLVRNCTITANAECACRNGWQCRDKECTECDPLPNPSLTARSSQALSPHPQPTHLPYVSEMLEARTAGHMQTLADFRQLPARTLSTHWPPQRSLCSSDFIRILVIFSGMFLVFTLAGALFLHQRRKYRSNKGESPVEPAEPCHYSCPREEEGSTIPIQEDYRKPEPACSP
Procedure: as §1

[6] = target: T6, DR6 on transiently transfected cells (UniProt O75509 42-655, limits assumed)
T6 construct: whole, on cells
T6 sequence (looked up): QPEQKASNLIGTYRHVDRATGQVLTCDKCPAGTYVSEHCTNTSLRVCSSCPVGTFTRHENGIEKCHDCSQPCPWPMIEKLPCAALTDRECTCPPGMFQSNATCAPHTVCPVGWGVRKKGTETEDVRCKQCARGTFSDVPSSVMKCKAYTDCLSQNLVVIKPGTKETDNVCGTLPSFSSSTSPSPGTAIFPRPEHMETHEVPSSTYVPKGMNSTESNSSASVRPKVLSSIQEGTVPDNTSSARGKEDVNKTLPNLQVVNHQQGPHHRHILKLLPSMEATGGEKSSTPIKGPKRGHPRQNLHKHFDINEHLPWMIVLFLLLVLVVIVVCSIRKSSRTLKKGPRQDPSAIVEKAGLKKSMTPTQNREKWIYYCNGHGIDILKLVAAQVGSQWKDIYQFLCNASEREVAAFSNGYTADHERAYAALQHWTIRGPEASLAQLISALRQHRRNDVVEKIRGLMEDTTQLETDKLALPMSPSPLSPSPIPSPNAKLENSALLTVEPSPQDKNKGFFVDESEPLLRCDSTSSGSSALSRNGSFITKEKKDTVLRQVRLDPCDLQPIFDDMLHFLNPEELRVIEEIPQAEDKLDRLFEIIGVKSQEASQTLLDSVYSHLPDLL
Procedure: as §1

Measured: binding result

B1: FLAG-tagged soluble form of TNF-gamma-beta (aa 72-251) (ligand, human, UniProt O95150 72-251, looked up)
chain: LKGQEFAPSHQQVYAPLRADGDKPRAHLTVVRQTPTQHFKNQFPALHWEHELGLAFTKNRMNYTNKFLLIPESGDYFIYSQVTFRGMTSECSEIRQAGRPNKPDSITVVITKVTDSYPEPTQLLMGTKSVCEVGSNWFQPIYLGAMFSLQEGDKLMVNVSDISLVDYTKEDKTFFGAFLL
notes: also called FLAG-TL1β; FLAG-TNF-gamma-beta; not shown: FLAG tag of vector pFLAGCMV1
no binding: all assays above
